Measurements as given in the supplement of paper PMC9732359.
± gives the uncertainty stated by the source.

Experiment: protein stability index of a GFP-peptide fusion (yeast GPS) (PSI 1-4); higher = more stable; sorted into four equal gates, so the index is relative within each strain
In short: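 Plasmids in a pooled yeast library fused tiled 17-residue yeast protein peptides downstream of GFP and also expressed Cherry. Mid-log cultures grown without leucine were sorted into four equal gates by GFP/Cherry fluorescence ratio. Each gate's plasmids were PCR-amplified and Illumina-sequenced, and reads were matched to strains by barcodes. The protein stability index is derived by multiplying each gate's read frequency by its gate number and summing the results.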

| Sequence | protein stability index (doa10∆) | protein stability index (pdr5∆) | protein stability index (ubr1∆) | protein stability index (san1∆) |
| --- | --- | --- | --- | --- |
| ATAVAHVKAGKGLIKVN [RPS16A] | 1.66 ± 0.2 | 1.9 ± 0.12 | 1.21 ± 0.24 |  |
| SLGFLQQSNKLHCCIQL [RPN3] | 2.39 ± 0.06 | 2.47 ± 0.085 | 2.14 ± 0.058 | 1.86 ± 0.12 |
| KEDKSEAIDGNGEIKGE [SNF2] | 2.23 ± 0.049 | 2.81 ± 0.083 | 2.48 ± 0.084 | 2.17 ± 0.073 |
| SMMSDGIEHFDIPPPAI [RPO31] | 1.97 ± 0.16 | 1.81 ± 0.13 | 2.06 ± 0.15 | 1.92 ± 0.17 |
| PSKGQSLSKISQAFDIV [RPP1] | 3.25 ± 0.095 | 3.19 ± 0.085 | 3.2 ± 0.085 | 2.96 ± 0.11 |
| AVATPKAEVTQLSNGIV [COR1] | 2.77 ± 0.074 | 3.11 ± 0.066 | 2.88 ± 0.045 | 3.12 ± 0.053 |
| MSDFQKEKVEEQEQQQQ [RPS20] | 2.87 ± 0.15 | 3.17 ± 0.15 | 3.51 ± 0.085 | 3.16 ± 0.08 |
| FDVMIDEESLVKYMPEQ [RPO21] | 2.3 ± 0.15 | 2.04 ± 0.16 | 2.13 ± 0.058 | 1.86 ± 0.26 |
| NNCEDFVSRPDRTMLAP [FAS1] | 3.28 ± 0.25 | 2.98 ± 0.17 | 3.2 ± 0.11 | 2.93 ± 0.26 |
| LTDPMTVMFFYHNKHMM [DIB1] | 2.19 ± 0.075 | 2.04 ± 0.061 | 1.76 ± 0.041 | 2.33 ± 0.094 |
| QVEKLGKKMEARGQSIW [RPN9] | 1.34 ± 0.15 | 1.14 ± 0.081 | 1.18 ± 0.22 |  |
| GINSPLSSVALRSDFYI [YJL039C/NUP192] | 2.45 ± 0.15 | 2.78 ± 0.12 | 3.07 ± 0.15 | 2.96 ± 0.14 |
| CEISGSIEQLRNVVEDI [BRN1] | 3.25 ± 0.18 | 3.33 ± 0.2 |  | 3.09 ± 0.19 |
| SDSIELLKQYPKDSSST [YJR042W/NUP85] | 2.62 ± 0.047 | 2.77 ± 0.051 | 2.82 ± 0.041 | 2.61 ± 0.044 |
| IKEFVDDLKKDHIAIDW [DSN1] | 2.56 ± 0.08 | 2.96 ± 0.075 | 2.75 ± 0.059 | 2.73 ± 0.076 |
| LLAREVLRLRGALVDRT [RPS0A] | 2.17 ± 0.21 | 2.15 ± 0.094 | 2.03 ± 0.15 | 1.78 ± 0.15 |
| FLDSMAQKYASIVGVDL [FAS2] | 1.81 ± 0.051 | 2.29 ± 0.048 | 2.61 ± 0.035 | 1.96 ± 0.057 |
| RFELHGDMTNSDAQSNL [REC8] | 2.93 ± 0.27 | 3.58 ± 0.13 | 3.22 ± 0.095 | 2.9 ± 0.17 |
| TAETGYIQRRLVKALED [RPO21] | 2.31 ± 0.073 | 2.74 ± 0.074 | 2.74 ± 0.072 | 2.69 ± 0.076 |
| AAKEGLALSSNISRDFQ [COR1] | 2.71 ± 0.089 | 3.08 ± 0.071 | 2.76 ± 0.096 | 3.13 ± 0.079 |
| KEQENITIQDLLFPKST [DPB4] | 3.05 ± 0.1 | 2.64 ± 0.13 | 2.75 ± 0.086 | 2.52 ± 0.087 |
| HIIQAKADAQREKALNE [RPL19A] | 3.29 ± 0.19 | 3.38 ± 0.094 |  | 3.33 ± 0.086 |
| NEAALVVNITHHELVPK [RPB5] | 2.93 ± 0.09 | 2.71 ± 0.06 | 2.88 ± 0.081 | 3.14 ± 0.062 |
| LAQLTSKLIPEVINKEI [RPS1A] | 2.82 ± 0.1 | 3.28 ± 0.1 | 2.71 ± 0.07 | 2.92 ± 0.073 |
| QFELLSRRWRQRKNIQS [BRR2] | 1.44 ± 0.08 | 1.92 ± 0.056 | 1.65 ± 0.044 | 1.55 ± 0.088 |
| PVSVSRIARALKQEGAA [RPL18A] | 3.36 ± 0.22 | 2.83 ± 0.11 | 3.3 ± 0.057 | 2.96 ± 0.12 |

| Sequence | protein stability index (doa10∆) | protein stability index (pdr5∆) | protein stability index (ubr1∆) | protein stability index (san1∆) |
| --- | --- | --- | --- | --- |
| IQFLTIGAGVPSLEVAS [FAS1] | 1.18 ± 0.037 | 1.24 ± 0.056 | 1.11 ± 0.039 | 1.2 ± 0.079 |
| HKHREARGLTATGKKSR [RPL15A] | 3.58 ± 0.2 | 3.37 ± 0.15 | 3.15 ± 0.068 | 3.31 ± 0.069 |
| DPSMDPELAMALRLSME [RPN10] | 2.98 ± 0.062 | 3.18 ± 0.05 | 2.96 ± 0.054 | 3.28 ± 0.068 |
| PLAPAPINLPPQIAQLP [SNF5] | 1.8 ± 0.079 | 2.09 ± 0.064 | 1.97 ± 0.061 | 1.88 ± 0.12 |
| FDDSSRIVNHKTKLWGF [LIN1] | 3.09 ± 0.071 | 2.98 ± 0.08 | 2.94 ± 0.055 | 3.1 ± 0.069 |
| PIPDARNAALRAKAEAA [SCL1] | 2.39 ± 0.14 | 2.69 ± 0.11 | 2.34 ± 0.092 | 2.44 ± 0.13 |
| QFTLYDRELNEVINQME [SMC3] | 3.01 ± 0.095 | 3.09 ± 0.091 | 3.08 ± 0.046 | 2.94 ± 0.13 |
| DTTFSDFKEVEDFLHFI [SRB4] | 2.83 ± 0.06 | 2.09 ± 0.05 | 2.56 ± 0.048 | 2.23 ± 0.064 |
| NEDDLTVKLTEIVWTSS [RPO31] | 2.89 ± 0.093 | 3.04 ± 0.09 | 3.14 ± 0.059 | 3.01 ± 0.074 |
| EYVYFFNNTSVIQDEVL [RPC40] | 2.41 ± 0.15 |  | 2.55 ± 0.073 |  |
| LTNEDPPGLMYLKAFDK [SSN2] |  | 2.61 ± 0.26 | 3.22 ± 0.13 |  |
| LEESDVEDTLHVNKRKR [YOR098C/NUP1] | 3.26 ± 0.095 | 2.89 ± 0.095 | 2.91 ± 0.062 | 3.12 ± 0.074 |
| ILSLIEEAAGTKMFEDR [SMC2] | 3.27 ± 0.11 | 3.19 ± 0.09 | 3.24 ± 0.066 | 3.19 ± 0.084 |
| TMHTKTYAAEIAHNISA [RPL32] | 2.34 ± 0.042 | 2.42 ± 0.04 | 2.33 ± 0.036 | 2.21 ± 0.051 |
| GPANNPNEFMQFKSKEV [PRP8] | 3.1 ± 0.11 | 3.31 ± 0.083 | 3.43 ± 0.11 | 3.19 ± 0.044 |
| KTFKNPKYESLKLEYYN [RPN5] | 2.11 ± 0.083 | 1.49 ± 0.089 | 1.25 ± 0.058 | 1.09 ± 0.23 |
| ASIESADILCPLLESFI [IRR1] | 3.19 ± 0.14 | 2.48 ± 0.11 | 2.85 ± 0.13 |  |
| LTHSTPKNFGIGQAVQP [RPL8A] | 3.06 ± 0.06 | 3.01 ± 0.045 | 3.18 ± 0.036 | 3.02 ± 0.033 |
| SVSMLLQYYILEYMNTA [RRI2] | 2.22 ± 0.079 | 2.34 ± 0.089 | 2.19 ± 0.055 | 2.93 ± 0.086 |
| HASFLCSFITQDKMFVS [FAS1] | 2.01 ± 0.063 | 1.64 ± 0.056 | 1.35 ± 0.033 | 1.35 ± 0.1 |
| PVVQVGIFIKILNDSLI [IRR1] | 1.5 ± 0.052 | 1.49 ± 0.046 | 1.97 ± 0.038 | 1.86 ± 0.067 |
| RNVNWIERLTKRQFNNS [ITC1] | 3.05 ± 0.12 | 3.36 ± 0.15 | 3.41 ± 0.12 | 3.05 ± 0.13 |
| NGAGGLMYATDWQMMTS [CSL4] | 3.23 ± 0.15 | 2.93 ± 0.12 | 2.99 ± 0.09 |  |
| NDLIVNYEDLATTQAAS [BRN1] | 2.98 ± 0.07 | 3.09 ± 0.087 | 3.25 ± 0.061 | 3.34 ± 0.046 |
| ALKKSRSKGKQNRPYNH [RPC17] | 3.04 ± 0.093 | 2.46 ± 0.1 | 2.42 ± 0.091 | 2.5 ± 0.1 |
